Legend:
Assay in all cases: holdup assay
Design in all cases: key: below the threshold = too weak to quantify, mostly under pKd 3.1 to 4
PDZRN4_2, Q6ZMN7 = settings: plain residues with an end cap or a label only (N-terminal biotin on a linker: ttds)
MPDZ_3, O75970 = target: T1, MPDZ_3, O75970; settings: plain residues with an end cap or a label only (N-terminal biotin on a linker: ttds)
T1 sequence (O75970 372-473, limits assumed, looked up): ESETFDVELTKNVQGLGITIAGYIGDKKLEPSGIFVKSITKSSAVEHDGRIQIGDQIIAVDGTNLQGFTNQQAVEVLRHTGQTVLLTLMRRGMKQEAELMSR

IL16_2, Q14005 = settings: plain residues with an end cap or a label only (N-terminal biotin on a linker: ttds)
MAGI3_5, Q5TCQ9 = settings: plain residues with an end cap or a label only (N-terminal biotin on a linker: ttds)
NHERF2_1, Q15599 = settings: plain residues with an end cap or a label only (N-terminal biotin on a linker: ttds)
MAGIX, Q9H6Y5 = settings: plain residues with an end cap or a label only (N-terminal biotin on a linker: ttds)
SHROOM4, Q9ULL8 = target: T2, SHROOM4, Q9ULL8; settings: plain residues with an end cap or a label only (N-terminal biotin on a linker: ttds)
T2 sequence (Q9ULL8 5-102, limits assumed, looked up): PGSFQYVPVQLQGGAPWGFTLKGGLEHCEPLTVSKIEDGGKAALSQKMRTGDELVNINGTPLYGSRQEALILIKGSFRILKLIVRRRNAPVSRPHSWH

PDZD2_1, O15018 = target: T3, PDZD2_1, O15018; settings: plain residues with an end cap or a label only (N-terminal biotin on a linker: ttds)
T3 sequence (O15018 80-192, limits assumed, looked up): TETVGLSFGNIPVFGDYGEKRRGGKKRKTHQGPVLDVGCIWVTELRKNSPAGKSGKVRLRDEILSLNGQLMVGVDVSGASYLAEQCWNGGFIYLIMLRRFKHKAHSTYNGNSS

PDZD2_3, O15018 = target: T4, PDZD2_3, O15018; settings: plain residues with an end cap or a label only (N-terminal biotin on a linker: ttds)
T4 sequence (O15018 581-682, limits assumed, looked up): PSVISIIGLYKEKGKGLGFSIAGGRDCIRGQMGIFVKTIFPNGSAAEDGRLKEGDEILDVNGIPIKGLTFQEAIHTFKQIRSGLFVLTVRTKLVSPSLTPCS

MAST1, Q9Y2H9 = target: MAST1, Q9Y2H9
MPDZ_2, O75970 = target: T5, MPDZ_2, O75970; settings: plain residues with an end cap or a label only (N-terminal biotin on a linker: ttds)
T5 sequence (O75970 252-347, limits assumed, looked up): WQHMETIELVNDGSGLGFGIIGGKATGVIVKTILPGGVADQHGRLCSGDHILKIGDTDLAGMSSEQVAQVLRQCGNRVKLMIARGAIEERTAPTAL

PDZD7_2, Q9H5P4 = target: T6, PDZD7_2, Q9H5P4; settings: plain residues with an end cap or a label only (N-terminal biotin on a linker: ttds)
T6 sequence (Q9H5P4 205-303, limits assumed, looked up): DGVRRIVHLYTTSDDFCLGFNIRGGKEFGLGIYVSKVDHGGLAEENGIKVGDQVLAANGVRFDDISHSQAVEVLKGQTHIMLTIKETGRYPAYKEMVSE

USH1C_3, Q9Y6N9 = target: T7, USH1C_3, Q9Y6N9; settings: plain residues with an end cap or a label only (N-terminal biotin on a linker: ttds)
T7 sequence (Q9Y6N9 447-547, limits assumed, looked up): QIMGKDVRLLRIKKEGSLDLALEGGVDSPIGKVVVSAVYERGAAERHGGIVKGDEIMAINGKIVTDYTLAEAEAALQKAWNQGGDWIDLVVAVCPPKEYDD

TJP3_1, O95049 = target: T8, TJP3_1, O95049; settings: plain residues with an end cap or a label only (N-terminal biotin on a linker: ttds)
T8 sequence (O95049 6-103, limits assumed, looked up): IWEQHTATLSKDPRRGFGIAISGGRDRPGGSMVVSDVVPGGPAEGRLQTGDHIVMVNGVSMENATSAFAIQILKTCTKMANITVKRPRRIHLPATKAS

GRIP2_4, Q9C0E4 = target: GRIP2_4, Q9C0E4
GIPC1, O14908 = target: T9, GIPC1, O14908; settings: plain residues with an end cap or a label only (N-terminal biotin on a linker: ttds)
T9 sequence (O14908 128-223, limits assumed, looked up): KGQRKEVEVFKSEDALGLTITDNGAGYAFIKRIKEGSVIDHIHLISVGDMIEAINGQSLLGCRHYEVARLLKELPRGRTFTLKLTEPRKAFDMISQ

MAGI3_6, Q5TCQ9 = settings: plain residues with an end cap or a label only (N-terminal biotin on a linker: ttds)
PDZD4, Q76G19 = target: T10, PDZD4, Q76G19; settings: plain residues with an end cap or a label only (N-terminal biotin on a linker: ttds)
T10 sequence (Q76G19 125-224, limits assumed, looked up): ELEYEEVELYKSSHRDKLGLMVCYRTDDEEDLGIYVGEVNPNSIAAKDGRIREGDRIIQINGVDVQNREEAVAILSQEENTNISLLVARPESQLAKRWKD

PTPN4, P29074 = target: T11, PTPN4, P29074; settings: plain residues with an end cap or a label only (N-terminal biotin on a linker: ttds)
T11 sequence (P29074 512-599, limits assumed, looked up): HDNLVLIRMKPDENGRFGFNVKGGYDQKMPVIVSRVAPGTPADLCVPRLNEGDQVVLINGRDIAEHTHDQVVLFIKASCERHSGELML

PREX1_1, Q8TCU6 = settings: plain residues with an end cap or a label only (N-terminal biotin on a linker: ttds)
USH1C_2, Q9Y6N9 = target: T12, USH1C_2, Q9Y6N9; settings: plain residues with an end cap or a label only (N-terminal biotin on a linker: ttds)
T12 sequence (Q9Y6N9 206-303, limits assumed, looked up): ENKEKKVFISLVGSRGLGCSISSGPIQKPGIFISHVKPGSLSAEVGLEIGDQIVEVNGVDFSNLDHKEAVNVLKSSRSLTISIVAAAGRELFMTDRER

LMO7, Q8WWI1 = settings: plain residues with an end cap or a label only (N-terminal biotin on a linker: ttds)
MAGI2_1, Q86UL8 = target: T13, MAGI2_1, Q86UL8; settings: plain residues with an end cap or a label only (N-terminal biotin on a linker: ttds)
T13 sequence (Q86UL8 12-111, limits assumed, looked up): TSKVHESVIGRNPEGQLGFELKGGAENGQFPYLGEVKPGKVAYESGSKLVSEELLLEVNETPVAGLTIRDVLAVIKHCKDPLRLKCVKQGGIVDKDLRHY

[1] = plain residues with an end cap or a label only (N-terminal biotin on a linker: ttds)
[2] = plain residues with an end cap or a label only (N-terminal biotin on a linker: ahx)
[3] = plain residues with an end cap or a label only (N-terminal biotin on a linker: gsgsgs; C-terminal amide)
[4] = plain residues with an end cap or a label only (N-terminal biotin on a linker: ado-ado)

MAST1, Q9Y2H9, sequence (Q9Y2H9 962-1065): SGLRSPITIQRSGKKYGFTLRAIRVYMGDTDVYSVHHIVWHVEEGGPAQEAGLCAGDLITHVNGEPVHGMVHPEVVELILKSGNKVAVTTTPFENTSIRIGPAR
GRIP2_4, Q9C0E4, sequence (Q9C0E4 446-548): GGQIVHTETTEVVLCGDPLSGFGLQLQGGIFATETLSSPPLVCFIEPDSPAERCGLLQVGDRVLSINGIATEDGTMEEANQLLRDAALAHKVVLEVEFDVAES
MAGIX, Q9H6Y5, sequence (Q9H6Y5 118-211): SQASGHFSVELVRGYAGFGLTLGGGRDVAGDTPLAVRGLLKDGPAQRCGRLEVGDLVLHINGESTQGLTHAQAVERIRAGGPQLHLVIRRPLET
IL16_2, Q14005, sequence (Q14005 350-450): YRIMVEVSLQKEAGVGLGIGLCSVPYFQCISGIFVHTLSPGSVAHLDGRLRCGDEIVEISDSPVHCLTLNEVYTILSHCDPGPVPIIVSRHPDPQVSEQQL
PREX1_1, Q8TCU6, sequence (Q8TCU6 608-718): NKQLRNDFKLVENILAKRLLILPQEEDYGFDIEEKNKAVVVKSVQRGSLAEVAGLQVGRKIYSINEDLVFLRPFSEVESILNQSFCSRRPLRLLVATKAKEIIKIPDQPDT
MAGI3_5, Q5TCQ9, sequence (Q5TCQ9 847-941): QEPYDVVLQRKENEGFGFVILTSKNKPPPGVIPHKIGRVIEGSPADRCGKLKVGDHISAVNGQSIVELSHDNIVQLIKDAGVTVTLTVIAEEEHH
MAGI3_6, Q5TCQ9, sequence (Q5TCQ9 1014-1103): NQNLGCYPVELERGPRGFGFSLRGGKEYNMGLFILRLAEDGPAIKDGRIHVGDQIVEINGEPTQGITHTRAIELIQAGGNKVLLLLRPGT
NHERF2_1, Q15599, sequence (Q15599 9-91): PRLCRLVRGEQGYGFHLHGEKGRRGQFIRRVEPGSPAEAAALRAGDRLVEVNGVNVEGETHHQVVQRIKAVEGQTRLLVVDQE
PDZRN4_2, Q6ZMN7, sequence (Q6ZMN7 389-498): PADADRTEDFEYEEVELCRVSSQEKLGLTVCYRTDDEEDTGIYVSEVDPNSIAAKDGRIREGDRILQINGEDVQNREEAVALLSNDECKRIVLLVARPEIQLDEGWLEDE
LMO7, Q8WWI1, sequence (Q8WWI1 1037-1138): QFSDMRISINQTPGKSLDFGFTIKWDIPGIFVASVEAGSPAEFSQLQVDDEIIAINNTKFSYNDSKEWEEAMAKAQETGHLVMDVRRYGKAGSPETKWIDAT

Binder: SKPTRRETEV [HPV35-E6, P27228]
- pKd (PDZRN4_2, Q6ZMN7): below the threshold
- pKd (MPDZ_3, O75970): below the threshold
- pKd (IL16_2, Q14005): 3.57
- pKd (MAGI3_5, Q5TCQ9): below the threshold
- pKd (NHERF2_1, Q15599): 3.77
- pKd (MAGIX, Q9H6Y5): 3.56
- pKd (SHROOM4, Q9ULL8): below the threshold
- pKd (PDZD2_1, O15018): below the threshold
- pKd (PDZD2_3, O15018): below the threshold
- pKd (MAST1, Q9Y2H9; [1]): below the threshold
- pKd (MPDZ_2, O75970): below the threshold
- pKd (PDZD7_2, Q9H5P4): below the threshold
- pKd (USH1C_3, Q9Y6N9): below the threshold
- pKd (TJP3_1, O95049): below the threshold
- pKd (GRIP2_4, Q9C0E4; [1]): below the threshold
- pKd (GIPC1, O14908): 4.69
- pKd (MAGI3_6, Q5TCQ9): 3.81
- pKd (PDZD4, Q76G19): 3.55
- pKd (PTPN4, P29074): 4.03
- pKd (PREX1_1, Q8TCU6): below the threshold

Binder: NRKREIFSNF [NHERF2, Q15599]
- pKd (MAST1, Q9Y2H9; [2]): below the threshold
- pKd (GRIP2_4, Q9C0E4; [2]): below the threshold

Binder: HNAFLSVTTV [PDZRN4, Q6ZMN7]
- pKd (MAST1, Q9Y2H9; [2]): 3.65
- pKd (GRIP2_4, Q9C0E4; [2]): below the threshold

Binder: DKDPHSETAL [TMIGD1, Q6UXZ0]
- pKd (MAST1, Q9Y2H9; [1]): 4.85
- pKd (GRIP2_4, Q9C0E4; [1]): below the threshold

Binder: ESLLLGPSNF [SHROOM4, Q9ULL8]
- pKd (MAST1, Q9Y2H9; [2]): below the threshold
- pKd (GRIP2_4, Q9C0E4; [2]): below the threshold

Binder: PSASCAVTAA [PDLIM4, P50479;P50479-2]
- pKd (MAST1, Q9Y2H9; [2]): below the threshold
- pKd (GRIP2_4, Q9C0E4; [2]): below the threshold

Binder: RLQRRRETQV [HPV18-E6, P06463]
- pKd (PDZRN4_2, Q6ZMN7): below the threshold
- pKd (MPDZ_3, O75970): below the threshold
- pKd (IL16_2, Q14005): below the threshold
- pKd (MAGI3_5, Q5TCQ9): below the threshold
- pKd (NHERF2_1, Q15599): below the threshold
- pKd (MAGIX, Q9H6Y5): below the threshold
- pKd (SHROOM4, Q9ULL8): below the threshold
- pKd (PDZD2_1, O15018): below the threshold
- pKd (PDZD2_3, O15018): below the threshold
- pKd (MAST1, Q9Y2H9; [1]): 5.33
- pKd (MPDZ_2, O75970): below the threshold
- pKd (PDZD7_2, Q9H5P4): below the threshold
- pKd (USH1C_3, Q9Y6N9): below the threshold
- pKd (TJP3_1, O95049): below the threshold
- pKd (USH1C_2, Q9Y6N9): below the threshold
- pKd (GRIP2_4, Q9C0E4; [1]): below the threshold
- pKd (GIPC1, O14908): 4.44
- pKd (MAGI3_6, Q5TCQ9): below the threshold
- pKd (LMO7, Q8WWI1): below the threshold
- pKd (PDZD4, Q76G19): below the threshold
- pKd (PTPN4, P29074): 4.62
- pKd (PREX1_1, Q8TCU6): below the threshold
- pKd (MAGI2_1, Q86UL8): below the threshold

Binder: PRVKPQRSKV [PPP1R13L, Q8WUF5]
- pKd (MAST1, Q9Y2H9; [1]): 3.71
- pKd (GRIP2_4, Q9C0E4; [1]): below the threshold

Binder: NDPAWDETNL [ARHGEF7, Q14155;Q14155-1]
- pKd (MAST1, Q9Y2H9; [1]): 4.92
- pKd (GRIP2_4, Q9C0E4; [1]): below the threshold

Binder: PVRVCEETSL [OTULIN, Q96BN8]
- pKd (MAST1, Q9Y2H9; [1]): 5.3
- pKd (GRIP2_4, Q9C0E4; [1]): 3.53

Binder: VDFPPKESSL [ACVR2A, P27037]
- pKd (MAST1, Q9Y2H9; [1]): 4.77
- pKd (GRIP2_4, Q9C0E4; [1]): below the threshold

Binder: VSVDDVRSTSQGLSSY [DFNB31_int, Q9P202]
- pKd (MAST1, Q9Y2H9; [3]): below the threshold
- pKd (GRIP2_4, Q9C0E4; [3]): below the threshold

Binder: SDSSGQEYSL [KCTD3, Q9Y597]
- pKd (MAST1, Q9Y2H9; [2]): below the threshold
- pKd (GRIP2_4, Q9C0E4; [2]): below the threshold

Binder: TVICWPGSLV [LNX2, Q8N448]
- pKd (MAST1, Q9Y2H9; [2]): 3.88
- pKd (GRIP2_4, Q9C0E4; [2]): below the threshold

Binder: YGIVQETTFDLGGDIH [MLLT4_int, P55196]
- pKd (MAST1, Q9Y2H9; [3]): below the threshold
- pKd (GRIP2_4, Q9C0E4; [3]): below the threshold

Binder: RAVEEEESRF [PSCDBP, O60759]
- pKd (MAST1, Q9Y2H9; [2]): 4.02
- pKd (GRIP2_4, Q9C0E4; [2]): below the threshold

Binder: EMDRRPATVV [PLCB4, Q15147]
- pKd (MAST1, Q9Y2H9; [1]): 4.48
- pKd (GRIP2_4, Q9C0E4; [1]): below the threshold

Binder: PLSPEQPTKL [TRIM50, Q86XT4]
- pKd (MAST1, Q9Y2H9; [4]): 3.97
- pKd (GRIP2_4, Q9C0E4; [4]): below the threshold

Binder: RRRKRKRTYL [HPV49-L2, P36762]
- pKd (MAST1, Q9Y2H9; [2]): 4.21
- pKd (GRIP2_4, Q9C0E4; [2]): 4.37

Binder: GYDWGPATDL [TJP3, O95049]
- pKd (MAST1, Q9Y2H9; [2]): 4.78
- pKd (GRIP2_4, Q9C0E4; [2]): below the threshold

Binder: FHPLGADSQV [SLC2A1, P11166]
- pKd (MAST1, Q9Y2H9; [1]): below the threshold
- pKd (GRIP2_4, Q9C0E4; [1]): below the threshold

Binder: KKYVDAETSL [SLC4A7, Q9Y6M7]
- pKd (MAST1, Q9Y2H9; [1]): 5.32
- pKd (GRIP2_4, Q9C0E4; [1]): below the threshold

Binder: EVVHTPETSV [SLC16A3, O15427]
- pKd (MAST1, Q9Y2H9; [1]): 4.11
- pKd (GRIP2_4, Q9C0E4; [1]): below the threshold

Binder: LSDPSVSTVV [GRIN1, Q05586;Q05586-2]
- pKd (MAST1, Q9Y2H9; [2]): below the threshold
- pKd (GRIP2_4, Q9C0E4; [2]): below the threshold
